Measured values from patent US8367390B2, “Galactanase variants” (Novozymes A/S, priority 2002, dated 2013).

Assay: Activity with ONPG, release of o-nitrophenol (ONP) at 405 nm
Format: biochemical
Method: The activity of HIGAL and MTGAL with ONPG was tested by mixing 200 microliters (normally 5.5 mg/ml) ONPG in 50 mM sodium acetate, 1 mM CaCl2, 0.01% Triton X-100, pH 6.5 with 25 microliters galactanase (normally 1 mg/ml) in the well of a microtiter plate. Release of o-nitrophenol (ONP) was measured at room temperature at 405 nm every 10 seconds normally for 30 min on a SpectraMaxPlus (Molecular Devices). Effects on the observed release of ONP was studied with varied enzyme concentration, ONPG concentration and with addition of galactose (Gal), beta-1,4-galactobiose (Gal2) (Megazyme), beta-1,4-galactotriose (Gal3), beta-1,4-galactotetraose (Gal4), glucose (Glu), arabinose (Ara), galacturonic acid (GalA), maltose (Mal) or maltotriose (Mal3).
In Tables 8-11 below, incubation times required to increase the observed absorbance at 405 nm by given amounts are listed. Cells marked ‘n.r.’ indicate that the increase in absorbance was not reached in the experiment. In general, the initial increase in absorbance at 405 nm was very slow, but after a lag phase the rate of ONP release often increased drastically—often approximately exponentially. The most likely explanation for the observed kinetics is that ONPG reacts with the enzyme to give an enzyme-galactosyl intermediate which hydrolyses very slowly. Instead, the Gal of the intermediate is released by transglycosylation, initially with ONPG or added sugar as acceptor. In cases where the rate of ONP release increases, these transglycosylation products are even better acceptors than the initial ones. […] More likely, Gal inhibits the subsequent transglycosylation, which requires binding of ONPG to the +1 and +2 subsites, e.g., by binding to the +2 subsite. With 50 mg/ml Gal added (results not shown) release of ONP was even slower with only insignificant increase of absorbance at 405 nm in 30 min.

[1] = Table 8, enzyme 28 μg/ml, ONPG 5 mg/ml, no sugar
[2] = Table 8, enzyme 55 μg/ml, ONPG 5 mg/ml, Gal 5 mg/ml
[3] = Table 8, enzyme 55 μg/ml, ONPG 5 mg/ml, no sugar
[4] = Table 8, enzyme 110 μg/ml, ONPG 5 mg/ml, Gal 5 mg/ml
[5] = Table 8, enzyme 110 μg/ml, ONPG 5 mg/ml, no sugar
[6] = Table 9, enzyme 110 μg/ml, ONPG 1.25 mg/ml
[7] = Table 9, enzyme 110 μg/ml, ONPG 2.5 mg/ml
[8] = Table 9, enzyme 110 μg/ml, ONPG 5 mg/ml
[9] = Table 9, enzyme 110 μg/ml, ONPG 10 mg/ml
[10] = Table 10, enzyme 110 μg/ml, ONPG 5 mg/ml, Gal2 0.05 mg/ml
[11] = Table 10, enzyme 110 μg/ml, ONPG 5 mg/ml, Gal2 0.5 mg/ml
[12] = Table 10, enzyme 110 μg/ml, ONPG 5 mg/ml, Gal3 0.05 mg/ml

ONP release compared at identical enzyme dosage (Table 8): faster than MTGAL
B1: HIGAL: GH Family 53 galactanase from Humicola insolens, SEQ ID NO: 2 (wild type parent) (protein, listed as Humicola insolens)
chain: ALQYKGVDWSSVMVEERAGVRYKNVNGQEKPLEYILAENGVNMVRQRVWVNPWDGNYNLDYNIQLARRAKAAGLGLYINFHYSDTWADPAHQTTPAGWPSDINNLAWKLYNYTLDSMNRFADAGIQVDIVSIGNEITQGLLWPLGKTNNWYNIARLLHSAAWGVKDSRLNPKPKIMVHLDNGWNWDTQNWWYTNVLSQGPFEMSDFDMMGVSFYPFYSASATLDSLRRSLNNMVSRWGKEVAVVETNWPTSCPYPRYQFPADVRNVPFSAAGQTQYIQSVANVVSSVSKGVGLFYWEPAWIHNANLGSSCADNTMFTPSGQALSSLSVFHRI
modifications: mat_peptide (1)..()
Effect of Ara on ONP release (Ara 5 mg/ml): about three times slower ONP release | Slowing of ONP release by addition of Gal (Gal 5 mg/ml): a factor of three | Effect of GalA on ONP release (GalA 5 mg/ml): weak inhibitory effect | Effect of GalA on ONP release (GalA 50 mg/ml): slows ONP release by about a factor two | Effect of Glu on ONP release (Glu 5 mg/ml): slight inhibitory effect | ONP release in 30 min (Glu 50 mg/ml, results not shown): < 0.02 | Effect of Mal or Mal3 on ONP release (Mal or Mal3 5 mg/ml): no significant effects on ONP release | Time (min) to increase A405 by: 0.025 [1]: 41.4 min | Time (min) to increase A405 by: 0.05 [1]: 46.5 min | Time (min) to increase A405 by: 0.1 [1]: 51.0 min | Time (min) to increase A405 by: 0.2 [1]: 56.5 min | Time (min) to increase A405 by: 0.4 [1]: n.r. | Time (min) to increase A405 by: 0.8 [1]: n.r. | Time (min) to increase A405 by: 1.6 [1]: n.r. | Time (min) to increase A405 by: 3.2 [1]: n.r. | Time (min) to increase A405 by: 0.025 [2]: 57.0 min | Time (min) to increase A405 by: 0.05 [2]: n.r. | Time (min) to increase A405 by: 0.1 [2]: n.r. | Time (min) to increase A405 by: 0.2 [2]: n.r. | Time (min) to increase A405 by: 0.4 [2]: n.r. | Time (min) to increase A405 by: 0.8 [2]: n.r. | Time (min) to increase A405 by: 1.6 [2]: n.r. | Time (min) to increase A405 by: 3.2 [2]: n.r. | Time (min) to increase A405 by: 0.025 [3]: 20.4 min | Time (min) to increase A405 by: 0.05 [3]: 22.9 min | Time (min) to increase A405 by: 0.1 [3]: 25.4 min | Time (min) to increase A405 by: 0.2 [3]: 28.0 min | Time (min) to increase A405 by: 0.4 [3]: 30.9 min | Time (min) to increase A405 by: 0.8 [3]: 32.0 min | Time (min) to increase A405 by: 1.6 [3]: 35.0 min | Time (min) to increase A405 by: 3.2 [3]: 37.9 min | Time (min) to increase A405 by: 0.025 [4]: 32.0 min | Time (min) to increase A405 by: 0.05 [4]: 35.7 min | Time (min) to increase A405 by: 0.1 [4]: 41.5 min | Time (min) to increase A405 by: 0.2 [4]: 46.7 min | Time (min) to increase A405 by: 0.4 [4]: 52.7 min | Time (min) to increase A405 by: 0.8 [4]: 59.0 min | Time (min) to increase A405 by: 1.6 [4]: n.r. | Time (min) to increase A405 by: 3.2 [4]: n.r. | Time (min) to increase A405 by: 0.025 [5]: 9.0 min | Time (min) to increase A405 by: 0.05 [5]: 10.3 min | Time (min) to increase A405 by: 0.1 [5]: 11.5 min | Time (min) to increase A405 by: 0.2 [5]: 12.7 min | Time (min) to increase A405 by: 0.4 [5]: 13.8 min | Time (min) to increase A405 by: 0.8 [5]: 15.0 min | Time (min) to increase A405 by: 1.6 [5]: 15.0 min | Time (min) to increase A405 by: 3.2 [5]: 17.7 min | Time (min) to increase A405 by: 0.025 [6]: 28.7 min | Time (min) to increase A405 by: 0.05 [6]: n.r. | Time (min) to increase A405 by: 0.1 [6]: n.r. | Time (min) to increase A405 by: 0.2 [6]: n.r. | Time (min) to increase A405 by: 0.4 [6]: n.r. | Time (min) to increase A405 by: 0.8 [6]: n.r. | Time (min) to increase A405 by: 1.6 [6]: n.r. | Time (min) to increase A405 by: 3.2 [6]: n.r. | Time (min) to increase A405 by: 0.025 [7]: 9.7 min | Time (min) to increase A405 by: 0.05 [7]: 11.3 min | Time (min) to increase A405 by: 0.1 [7]: 12.7 min | Time (min) to increase A405 by: 0.2 [7]: 14.0 min | Time (min) to increase A405 by: 0.4 [7]: 15.5 min | Time (min) to increase A405 by: 0.8 [7]: 17.3 min | Time (min) to increase A405 by: 1.6 [7]: 19.5 min | Time (min) to increase A405 by: 3.2 [7]: 22.8 min | Time (min) to increase A405 by: 0.025 [8]: 6.0 min | Time (min) to increase A405 by: 0.05 [8]: 8.0 min | Time (min) to increase A405 by: 0.1 [8]: 9.2 min | Time (min) to increase A405 by: 0.2 [8]: 10.2 min | Time (min) to increase A405 by: 0.4 [8]: 11.3 min | Time (min) to increase A405 by: 0.8 [8]: 12.5 min | Time (min) to increase A405 by: 1.6 [8]: 13.8 min | Time (min) to increase A405 by: 3.2 [8]: 15.3 min | Time (min) to increase A405 by: 0.025 [9]: 6.3 min | Time (min) to increase A405 by: 0.05 [9]: 7.7 min | Time (min) to increase A405 by: 0.1 [9]: 8.8 min | Time (min) to increase A405 by: 0.2 [9]: 10.0 min | Time (min) to increase A405 by: 0.4 [9]: 11.2 min | Time (min) to increase A405 by: 0.8 [9]: 12.3 min | Time (min) to increase A405 by: 1.6 [9]: 13.5 min | Time (min) to increase A405 by: 3.2 [9]: 14.7 min | Initial rate (mOD/min) [10]: 2 mOD/min | Time (min) to increase A405 by: 0.025 [10]: 5.5 min | Time (min) to increase A405 by: 0.05 [10]: 6.8 min | Time (min) to increase A405 by: 0.1 [10]: 8.2 min | Time (min) to increase A405 by: 0.2 [10]: 9.5 min | Time (min) to increase A405 by: 0.4 [10]: 10.7 min | Time (min) to increase A405 by: 0.8 [10]: 11.8 min | Time (min) to increase A405 by: 1.6 [10]: 13.3 min | Time (min) to increase A405 by: 3.2 [10]: 15.2 min | Initial rate (mOD/min) [11]: 6 mOD/min | Time (min) to increase A405 by: 0.025 [11]: 2.7 min | Time (min) to increase A405 by: 0.05 [11]: 3.5 min | Time (min) to increase A405 by: 0.1 [11]: 4.8 min | Time (min) to increase A405 by: 0.2 [11]: 6.0 min | Time (min) to increase A405 by: 0.4 [11]: 7.2 min | Time (min) to increase A405 by: 0.8 [11]: 8.3 min | Time (min) to increase A405 by: 1.6 [11]: 9.7 min | Time (min) to increase A405 by: 3.2 [11]: 11.0 min | Initial rate (mOD/min) [12]: 40 mOD/min | Time (min) to increase A405 by: 0.025 [12]: 0.5 min | Time (min) to increase A405 by: 0.05 [12]: 1.0 min | Time (min) to increase A405 by: 0.1 [12]: 1.7 min | Time (min) to increase A405 by: 0.2 [12]: 2.3 min | Time (min) to increase A405 by: 0.4 [12]: 3.3 min | Time (min) to increase A405 by: 0.8 [12]: 4.8 min | Time (min) to increase A405 by: 1.6 [12]: 6.3 min | Time (min) to increase A405 by: 3.2 [12]: 7.7 min
